Measured values taken from the supplement of paper PMC11316812.
± gives the standard deviation of the averaged measurements.

Assays:
[1] = test system: MCF7; assay: percentage of EdU-negative (G0-arrested) nuclei per well, 72 h; higher = more G0 arrest; details: reference: sequence is the full UniProt precursor, the tested protein was the secreted form or ectodomain
[2] = test system: hTERT-HMEC; assay: as above; details: reference: sequence is the full UniProt precursor, the tested protein was the secreted form or ectodomain
[3] = protein concentration 0.0357143 µM
[4] = protein concentration 0.357143 µM
[5] = protein concentration 0.03125 µM
[6] = protein concentration 0.3125 µM
[7] = protein concentration 0.0225 µM
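Note: secreted proteins added to cultured cells, EdU pulse at the end, nuclei found by Hoechst imaging, EdU status from nuclear versus surrounding ring intensity ratio, PBS as neutral control.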

Sequence	percentage of EdU-negative [1, 7]	percentage of EdU-negative ([1]; protein concentration 0.225 µM)	percentage of EdU-negative [2, 7]	percentage of EdU-negative ([2]; protein concentration 0.225 µM)	other results
MWLLVSVILISRISSVGGEAMFCDFPKINHGILYDEEKYKPFSQVPTGEVFYYSCEYNFVSPSKSFWTRITCAEEGWSPTPKCLRLCFFPFVENGHSESSGQTHLEGDTVQIICNTGYRLQNNENNISCVERGWSTPPKCRSTISAEKCGPPPPIDNGDITSFLLSVYAPGSSVEYQCQNLYQLEGNNQITCRNGQWSEPPKCLDPCVISQEIMEKYNIKLKWTNQQKLYSRTGDIVEFVCKSGYHPTKSHSFRAMCQNGKLVYPSCEEK	–	–	–	–	percentage of EdU-negative [1, 3]: 26.5 ± 2.9%; percentage of EdU-negative [1, 4]: 27.9 ± 1.9%; percentage of EdU-negative [2, 3]: 5.7 ± 0.61%; percentage of EdU-negative [2, 4]: 17.5 ± 3.6%
MPGIKRILTVTILALCLPSPGNAQAQCTNGFDLDRQSGQCLDIDECRTIPEACRGDMMCVNQNGGYLCIPRTNPVYRGPYSNPYSTPYSGPYPAAAPPLSAPNYPTISRPLICRFGYQMDESNQCVDVDECATDSHQCNPTQICINTEGGYTCSCTDGYWLLEGQCLDIDECRYGYCQQLCANVPGSYSCTCNPGFTLNEDGRSCQDVNECATENPCVQTCVNTYGSFICRCDPGYELEEDGVHCSDMDECSFSEFLCQHECVNQPGTYFCSCPPGYILLDDNRSCQDINECEHRNHTCNLQQTCYNLQGGFKCIDPIRCEEPYLRISDNRCMCPAENPGCRDQPFTILYRDMDVVSGRSVPADIFQMQATTRYPGAYYIFQIKSGNEGREFYMRQTGPISATLVMTRPIKGPREIQLDLEMITVNTVINFRGSSVIRLRIYVSQYPF [Q9UBX5]	–	–	–	–	percentage of EdU-negative [1, 5]: 27.1 ± 1%; percentage of EdU-negative [1, 6]: 26.6 ± 2%; percentage of EdU-negative [2, 5]: 4.99 ± 0.79%; percentage of EdU-negative [2, 6]: 6.25 ± 1.1%
MFHSSAMVNSHRKPMFNIHRGFYCLTAILPQICICSQFSVPSSYHFTEDPGAFPVATNGERFPWQELRLPSVVIPLHYDLFVHPNLTSLDFVASEKIEVLVSNATQFIILHSKDLEITNATLQSEEDSRYMKPGKELKVLSYPAHEQIALLVPEKLTPHLKYYVAMDFQAKLGDGFEGFYKSTYRTLGGETRILAVTDFEPTQARMAFPCFDEPLFKANFSIKIRRESRHIALSNMPKVKTIELEGGLLEDHFETTVKMSTYLVAYIVCDFHSLSGFTSSGVKVSIYASPDKRNQTHYALQASLKLLDFYEKYFDIYYPLSKLDLIAIPDFAPGAMENWGLITYRETSLLFDPKTSSASDKLWVTRVIAHELAHQWFGNLVTMEWWNDIWLKEGFAKYMELIAVNATYPELQFDDYFLNVCFEVITKDSLNSSRPISKPAETPTQIQEMFDEVSYNKGACILNMLKDFLGEEKFQKGIIQYLKKFSYRNAKNDDLWSSLSNSCLESDFTSGGVCHSDPKMTSNMLAFLGENAEVKEMMTTWTLQKGIPLLVVKQDGCSLRLQQERFLQGVFQEDPEWRALQERYLWHIPLTYSTSSSNVIHRHILKSKTDTLDLPEKTSWVKFNVDSNGYYIVHYEGHGWDQLITQLNQNHTLLRPKDRVGLIHDVFQLVGAGRLTLDKALDMTYYLQHETSSPALLEGLSYLESFYHMMDRRNISDISENLKRYLLQYFKPVIDRQSWSDKGSVWDRMLRSALLKLACDLNHAPCIQKAAELFSQWMESSGKLNIPTDVLKIVYSVGAQTTAGWNYLLEQYELSMSSAEQNKILYALSTSKHQEKLLKLIELGMEGKVIKTQNLAALLHAIARRPKGQQLAWDFVRENWTHLLKKFDLGSYDIRMIISGTTAHFSSKDKLQEVKLFFESLEAQGSHLDIFQTVLETITKNIKWLEKNLPTLRTWLMVNT [Q6P179]	25.63 ± 0.041%	25.5 ± 0.38%	4.8 ± 0.71%	5.45 ± 0.3%	–
MRWRTILLQYCFLLITCLLTALEAVPIDIDKTKVQNIHPVESAKIEPPDTGLYYDEYLKQVIDVLETDKHFREKLQKADIEEIKSGRLSKELDLVSHHVRTKLDELKRQEVGRLRMLIKAKLDSLQDIGMDHQALLKQFDHLNHLNPDKFESTDLDMLIKAATSDLEHYDKTRHEEFKKYEMMKEHERREYLKTLNEEKRKEEESKFEEMKKKHENHPKVNHPGSKDQLKEVWEETDGLDPNDFDPKTFFKLHDVNSDGFLDEQELEALFTKELEKVYDPKNEEDDMVEMEEERLRMREHVMNEVDTNKDRLVTLEEFLKATEKKEFLEPDSWETLDQQQFFTEEELKEYENIIALQENELKKKADELQKQKEELQRQHDQLEAQKLEYHQVIQQMEQKKLQQGIPPSGPAGELKFEPHI	24 ± 0.28%	26 ± 1.5%	5.36 ± 0.7%	5.32 ± 1.9%	–
MEALPLLAATTPDHGRHRRLLLLPLLLFLLPAGAVQGWETEERPRTREEECHFYAGGQVYPGEASRVSVADHSLHLSKAKISKPAPYWEGTAVIDGEFKELKLTDYRGKYLVFFFYPLDFTFVCPTEIIAFGDRLEEFRSINTEVVACSVDSQFTHLAWINTPRRQGGLGPIRIPLLSDLTHQISKDYGVYLEDSGHTLRGLFIIDDKGILRQITLNDLPVGRSVDETLRLVQAFQYTDKHGEVCPAGWKPGSETIIPDPAGKLKYFDKLN	26.1 ± 1.3%	27.8 ± 0.15%	5.57 ± 1.3%	4.84 ± 0.26%	–
MLPRVGCPALPLPPPPLLPLLLLLLGASGGGGGARAEVLFRCPPCTPERLAACGPPPVAPPAAVAAVAGGARMPCAELVREPGCGCCSVCARLEGEACGVYTPRCGQGLRCYPHPGSELPLQALVMGEGTCEKRRDAEYGASPEQVADNGDDHSEGGLVENHVDSTMNMLGGGGSAGRKPLKSGMKELAVFREKVTEQHRQMGKGGKHHLGLEEPKKLRPPPARTPCQQELDQVLERISTMRLPDERGPLEHLYSLHIPNCDKHGLYNLKQCKMSLNGQRGECWCVNPNTGKLIQGAPTIRGDPECHLFYNEQQEARGVHTQRMQ	–	–	–	–	percentage of EdU-negative [1, 5]: 27.7 ± 2.4%; percentage of EdU-negative [1, 6]: 31.1 ± 3.1%; percentage of EdU-negative [2, 5]: 4.88 ± 1%; percentage of EdU-negative [2, 6]: 6.96 ± 0.2%
MLLLLTLALLGGPTWAGKMYGPGGGKYFSTTEDYDHEITGLRVSVGLLLVKSVQVKLGDSWDVKLGALGGNTQEVTLQPGEYITKVFVAFQAFLRGMVMYTSKDRYFYFGKLDGQISSAYPSQEGQVLVGIYGQYQLLGIKSIGFEWNYPLEEPTTEPPVNLTYSANSPVGR [Q96DA0]	25.49 ± 0.17%	24.3 ± 2.2%	5.62 ± 0.12%	9.31 ± 0.28%	–
